From the supplement of paper PMC10567573

B1: SPOPL (parent)
chain: PDDKLTLFCEVSVVQDSVNISGHT

Variants of: B1
Experiment: protein stability index of a GFP-peptide fusion (GPS, HEK-293T) (PSI 1-6); higher = more stable
Details: c terminus: a fixed tail appended
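Also: lentivirally expressed fusions sorted by FACS into six bins by GFP to DsRed ratio, PSI derived from sequencing read proportions per bin multiplied by bin number.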

Row | Variant | protein stability index
1 | PDDKLTLFCEVSVVQASVNISGHT | 2.28
2 | PDDKLTLFCEVSVVQTSVNISGHT | 1.53
3 | PDDKLTLFCEVSVVRDSVNISGHT | 1.44
4 | PDDKLTLFCEVSVVDDSVNISGHT | 3.19
5 | PDDKLTLFCEVSVVADSVNISGHT | 1.71
6 | PDDKLTLFCEVSVVEDSVNISGHT | 3.4
7 | PDDKLTLFCEVSVVGDSVNISGHT | 1.97
8 | PDDKLTLFCEVSVVSDSVNISGHT | 2.44
9 | PDDKLTLFCEVSVVNDSVNISGHT | 1.97
10 | PDDKLTLFCEVSVVHDSVNISGHT | 1.28
11 | PDDKLTLFCEVSVVFDSVNISGHT | 3.28
12 | PDDKLTLFCEVSVVKDSVNISGHT | 2.12
13 | PDDKLTLFCEVSVVTDSVNISGHT | 2.31
14 | PDDKLTLFCEVSVVPDSVNISGHT | 3.1
15 | PDDKLTLFCTVSVVQDSVNISGHT | 3.3
16 | PDDKLTLFCRVSVVQDSVNISGHT | 1.94
17 | PDDKLTLFCQVSVVQDSVNISGHT | 2.27
18 | PDDKLTLFCFVSVVQDSVNISGHT | 3.15
19 | PDDKLTLFCDVSVVQDSVNISGHT | 2.76
20 | PDDKLTLFCVVSVVQDSVNISGHT | 3.33
21 | PDDKLTLFCAVSVVQDSVNISGHT | 2.48
22 | PDDKLTLFCMVSVVQDSVNISGHT | 3.02
23 | PDDKLTLFCSVSVVQDSVNISGHT | 1.58
24 | PDDKLTLFCGVSVVQDSVNISGHT | 2.52

Row | Variant | protein stability index
25 | PDDKLTLFCNVSVVQDSVNISGHT | 2.74
26 | PDDKLTLFCIVSVVQDSVNISGHT | 2.63
27 | PDDKLTLFCLVSVVQDSVNISGHT | 3.02
28 | PDDKLTLFCKVSVVQDSVNISGHT | 1.45
29 | PDDKLTLFCHVSVVQDSVNISGHT | 2.12
30 | PDDKLTLFCPVSVVQDSVNISGHT | 3.44
31 | PDDKLTLFCCVSVVQDSVNISGHT | 2.81
32 | PDDKLTLFCWVSVVQDSVNISGHT | 2.53
33 | PDDKLTLFCEVSVVQDLVNISGHT | 3.52
34 | PDDKLTLFCEVSVVQDMVNISGHT | 3.15
35 | PDDKLTLFCEVSVVQDPVNISGHT | 2.85
36 | PDDKLTLFCEVSVVQDDVNISGHT | 3.11
37 | PDDKLTLFCEVSVVQDEVNISGHT | 2.99
38 | PDDKLTLFCEVSVVQDTVNISGHT | 1.85
39 | PDDKLTLFCEVSVVQDQVNISGHT | 2.07
40 | PDDKLTLFCEVSVVQDCVNISGHT | 2.61
41 | PDDKLTLFCEVSVVQDAVNISGHT | 2.29
42 | PDDKLTLFCEVSVVQDYVNISGHT | 2.99
43 | PDDKLTLFCEVSVVQDNVNISGHT | 1.84
44 | PDDKLTLFCEVSVVQDVVNISGHT | 1.03
45 | PDDKLTLFCEVSVVQDFVNISGHT | 4.06
46 | PDDKLTLFCEVSVVQDHVNISGHT | 1.38
47 | PDDKLTLFCEVSVVQDRVNISGHT | 1.73
48 | PDDKLTLFCEVSVVQDKVNISGHT | 3.12

Row | Variant | protein stability index
49 | PDDKLTLFCEVSVVQDGVNISGHT | 2
50 | PDDKLTLFCEVSVTQDSVNISGHT | 1.86
51 | PDDKLTLFCEVSVIQDSVNISGHT | 2.56
52 | PDDKLTLFCEVSVSQDSVNISGHT | 2.07
53 | PDDKLTLFCEVSVAQDSVNISGHT | 2.63
54 | PDDKLTLFCEVSVWQDSVNISGHT | 1.81
55 | PDDKLTLFCEVSVRQDSVNISGHT | 2.74
56 | PDDKLTLFCEVSVDQDSVNISGHT | 3.07
57 | PDDKLTLFCEVSVHQDSVNISGHT | 3.19
58 | PDDKLTLFCEVSVGQDSVNISGHT | 2.54
59 | PDDKLTLFCEVSVLQDSVNISGHT | 1.71
60 | PDDKLTLFCEVSVFQDSVNISGHT | 2.08
61 | PDDKLTLFCEVSVCQDSVNISGHT | 1.66
62 | PDDKLTLFCEVSVKQDSVNISGHT | 2.7
63 | PDDKLTLFCEVSVMQDSVNISGHT | 2.01
64 | PDDKLTLFCEVSVYQDSVNISGHT | 1.67
65 | PDDKLTLFCEVSVEQDSVNISGHT | 3.34
66 | PDDKLTLFCEVSVNQDSVNISGHT | 2.62
67 | PDDKLTLFCEVSVPQDSVNISGHT | 3.59
68 | PDDKLTLFCEVSVQQDSVNISGHT | 2.7
69 | PDDKLTLFWEVSVVQDSVNISGHT | 2.62
70 | PDDKLTLFQEVSVVQDSVNISGHT | 4.21
71 | PDDKLTLFPEVSVVQDSVNISGHT | 4.91
72 | PDDKLTLFVEVSVVQDSVNISGHT | 3.85

Row | Variant | protein stability index
73 | PDDKLTLFTEVSVVQDSVNISGHT | 3.83
74 | PDDKLTLFYEVSVVQDSVNISGHT | 2.07
75 | PDDKLTLFREVSVVQDSVNISGHT | 4.54
76 | PDDKLTLFSEVSVVQDSVNISGHT | 4.52
77 | PDDKLTLFCEVTVVQDSVNISGHT | 1.71
78 | PDDKLTLFCEVNVVQDSVNISGHT | 2.79
79 | PDDKLTLFCEVVVVQDSVNISGHT | 2.53
80 | PDDKLTLFCEVEVVQDSVNISGHT | 2.23
81 | PDDKLTLFCEVRVVQDSVNISGHT | 2.32
82 | PDDKLTLFCEVLVVQDSVNISGHT | 2.1
83 | PDDKLTLFCEVPVVQDSVNISGHT | 3.81
84 | PDDKLTLFCEVKVVQDSVNISGHT | 2
85 | PDDKLTLFCEVDVVQDSVNISGHT | 3.66
86 | PDDKLTLFCEVMVVQDSVNISGHT | 1.79
87 | PDDKLTLFCEVWVVQDSVNISGHT | 1.98
88 | PDDKLTLFCEVFVVQDSVNISGHT | 2.22
89 | PDDKLTLFCEVAVVQDSVNISGHT | 3.08
90 | PDDKLTLFCEVCVVQDSVNISGHT | 2.73
91 | PDDKLTLFCEVGVVQDSVNISGHT | 1.94
92 | PDDKLTLFCEVHVVQDSVNISGHT | 1.71
93 | PDDKLTLFCEVQVVQDSVNISGHT | 1.73
94 | PDDKLTLFCEVIVVQDSVNISGHT | 2.11
